Assay results from patent publication US12391762B2, “Methods and compositions relating to GLP1R variants” (Twist Bioscience Corporation, priority 2020, dated 2025).

Test system: CHO-parent cells
Assay: Flow cytometry binding assay on CHO-parent cells (background binding)
Set-up: species or system Chinese Hamster
Settings: for Bmax CHO Parent: IgG titration
Description: GLP-1R IgG clones were tested in a binding assay coupled to flow cytometry analysis as follows: FLAG-GLP-1R-GFP expressing CHO cells (CHO-GLP-1R) and CHO-parent cells were incubated with 100 nM IgG for 1 h on ice, washed three times and incubated with Alexa 647 conjugated goat-anti-human antibody (1:200) (Jackson ImmunoResearch Laboratories, 109-605-044) for 30 min on ice, followed by three washes, centrifuging to pellet the cells between each washing step. All incubations and washes were in buffer containing PBS+1% BSA. For titrations, IgG was serially diluted 1:3 starting from 100 nM down to 0.046 nM. Cells were analyzed by flow cytometry and hits (a hit is an IgG that specifically binds to CHO-GLP-1R) were identified by measuring the GFP signal against the Alexa 647 signal. Flow cytometry data of binding assays with 100 nM IgG are presented as dot plots. Analyses of binding assays with IgG titrations are presented as binding curves plotting IgG concentrations against MFI (mean fluorescence intensity).

Molecule | Median RL1-H of Parent Singlets (Table 6C, GLP1R-221 variants) | Bmax CHO Parent (Table 6E) | Median RL1-H of Parent Singlets (Table 6D, GLP1R-222 variants) | Bmax CHO Parent (Table 6F)
GLP1R221-084: GLP1R-221 variant, optimized from GLP1R-3 (antibody, V domains shown) VH: QVQLVESGGGVVQPGRSLRLSCAASGFAFSNYGMHWVRQAPGKGLEWVAVISSDENNKYYADSVKGRFTISRDNSKNTLYLQMNSLRAEDTAVYYCAKHMSMQEGAVTGEMQAAKEFIAWLVKGRVRADLVGDAFDVWGQGTLVTVSS VL: QSVLTQPPSVSAAPGQKVTISCSGSSSNIADNYVSWYQQLPGTAPKLLIYENNRRPSGIPDRFSGSKSGTSATLGITGLQTGDEADYYCGTWDVSLSVGMFGGGTKLTVL | 207 | 266.6 | – | –
GLP1R222-073: GLP1R-222 variant, optimized from GLP1R-3 (antibody, V domains shown) VH: QVQLVESGGGVVQPGRSLRLSCAASGFTFRDYGMHWVRQAPGKGLEWVAFIRYDEINKYYADSVKGRFTISRDNSKNTLYLQMNSLRAEDTAVYYCAKHMSMQEGAVTGEGQAAKEFIAWLVGGRVRADLVGDAFDVWGQGTLVTVSS VL: QSVLTQPPSVSAAPGQKVTISCSGSGSNIGNNDVSWYQQLPGTAPKLLIYDNNKRASGIPDRFSGSKSGTSATLGITGLQTGDEADYYCGTWDRGPNTGVFGGGTKLTVL | – | – | 229 | 228.4
GLP1R221-017: GLP1R-221 variant, optimized from GLP1R-3 (antibody, V domains shown) VH: QVQLVESGGGVVQPGRSLRLSCAASGFTFSDYGVHWVRQAPGKGLEWVAFISYDESNKYYADSVKGRFTISRDNSKNTLYLQMNSLRAEDTAVYYCAKHMSMQEGAVTGEYQAAKEFIAWLVKGRVRADLVGDAFDVWGQGTLVTVSS VL: QSVLTQPPSVSAAPGQKVTISCSGSSSNIGNTYVSWYQQLPGTAPKLLIYDDYKRPSGIPDRFSGSKSGTSATLGITGLQTGDEADYYCATWDATLNTGVFGGGTKLTVL | 162 | 228.7 | – | –
GLP1R221-076: GLP1R-221 variant, optimized from GLP1R-3 (antibody, V domains shown) VH: QVQLVESGGGVVQPGRSLRLSCAASGFTFNNYPMHWVRQAPGKGLEWVAVISYDETNKYYADSVKGRFTISRDNSKNTLYLQMNSLRAEDTAVYYCAKHMSMQEGAVTGEGQAAKEFIAWLVKGIVRADLVGDAFDVWGQGTLVTVSS VL: QSVLTQPPSVSAAPGQKVTISCSGTSSNIGNNDVSWYQQLPGTAPKLLIYENNKRHSGIPDRFSGSKSGTSATLGITGLQTGDEADYYCLTWDHSLTAYVFGGGTKLTVL | 316 | 183.2 | – | –
GLP1R221-065: GLP1R-221 variant, optimized from GLP1R-3 (antibody, V domains shown) VH: QVQLVESGGGVVQPGRSLRLSCAASGFTFNNYAMHWVRQAPGKGLEWVAVISYDRSNEYYADSVKGRFTISRDNSKNTLYLQMNSLRAEDTAVYYCAKHMSMQEGAVTGDGQAAKEFIAWLVKGRVRADLVGDAFDVWGQGTLVTVSS VL: QSVLTQPPSVSAAPGQKVTISCSGTTSNIANNFVSWYQQLPGTAPKLLIYDHNKRPSGIPDRFSGSKSGTSATLGITGLQTGDEADYYCGTWDTSLSAGAFGGGTKLTVL | 298 | 261.9 | – | –
GLP1R221-092: GLP1R-221 variant, optimized from GLP1R-3 (antibody, V domains shown) VH: QVQLVESGGGVVQPGRSLRLSCAASGFIFNNYGMHWVRQAPGKGLEWVAFISYGGSNKYYADSVKGRFTISRDNSKNTLYLQMNSLRAEDTAVYYCAKHMSMQEGAVTGEGQAVKEFIAWLVKGRVRADLVGDAFDVWGQGTLVTVSS VL: QSVLTQPPSVSAAPGQKVTISCSGTTSNIANNFVSWYQQLPGTAPKLLIYDNNKRPPGIPDRFSGSKSGTSATLGITGLQTGDEADYYCGTWDTSLSVGMFGGGTKLTVL | 326 | 291.2 | – | –
GLP1R221-033: GLP1R-221 variant, optimized from GLP1R-3 (antibody, V domains shown) VH: QVQLVESGGGVVQPGRSLRLSCAASGFSFSNYAMHWVRQAPGKGLEWVAVISHDRSNKYYADSVKGRFTISRDNSKNTLYLQMNSLRAEDTAVYYCAKHMSMQEGAVTGEGQAAKDFIAWLVKGRVRADLVGDAFDVWGQGTLVTVSS VL: QSVLTQPPSVSAAPGQKVTISCSGSSSNIGNEYVSWYQQLPGTAPKLLIYDNNKRVSGIPDRFSGSKSGTSATLGITGLQTGDEADYYCATWDTSLNVGVFGGGTKLTVL | 236 | 146 | – | –
GLP1R221-034: GLP1R-221 variant, optimized from GLP1R-3 (antibody, V domains shown) VH: QVQLVESGGGVVQPGRSLRLSCAASGFPFSNYGMHWVRQAPGKGLEWVAVISHDRSNKYYADSVKGRFTISRDNSKNTLYLQMNSLRAEDTAVYYCAKHMSMQEGAVTGEGQAVKEFIAWLVKGRVRADLVGDAFDVWGQGTLVTVSS VL: QSVLTQPPSVSAAPGQKVTISCSGSSSNIGNNPVSWYQQLPGTAPKLLIYENDNRPSGIPDRFSGSKSGTSATLGITGLQTGDEADYYCATWDRGLSTGVFGGGTKLTVL | 314 | 279.8 | – | –
GLP1R221-009: GLP1R-221 variant, optimized from GLP1R-3 (antibody, V domains shown) VH: QVQLVESGGGVVQPGRSLRLSCAASGFIFSNYGMHWVRQAPGKGLEWVAVISDEGSNKYYADSVKGRFTISRDNSKNTLYLQMNSLRAEDTAVYYCAKHMSMQEGAVTGAGQAAKEFIAWLVKGRVRADLVGDAFDVWGQGTLVTVSS VL: QSVLTQPPSVSAAPGQKVTISCSGSSSNIGNQYVSWYQQLPGTAPKLLIYDDHKRPSGIPDRFSGSKSGTSATLGITGLQTGDEADYYCGTWDTSLSVGEFGGGTKLTVL | 197 | 267.4 | – | –
GLP1R221-066: GLP1R-221 variant, optimized from GLP1R-3 (antibody, V domains shown) VH: QVQLVESGGGVVQPGRSLRLSCAASGFTFNNYAMHWVRQAPGKGLEWVAVISYDRSNEYYADSVKGRFTISRDNSKNTLYLQMNSLRAEDTAVYYCAKHMSMQEGAVTGEGQAIKEFIAWLVKGRVRADLVGDAFDVWGQGTLVTVSS VL: QSVLTQPPSVSAAPGQKVTISCSGSSSNIGNNYLSWYQQLPGTAPKLLIYENNKRPSGIPDRFSGSKSGTSATLGITGLQTGDEADYYCGIWDRSLSAWVFGGGTKLTVL | 240 | 112.1 | – | –
GLP1R221-075: GLP1R-221 variant, optimized from GLP1R-3 (antibody, V domains shown) VH: QVQLVESGGGVVQPGRSLRLSCAASGFTFSNYPMHWVRQAPGKGLEWVAVISYDETNKYYADSVKGRFTISRDNSKNTLYLQMNSLRAEDTAVYYCAKHMSMQEGAVTGEGQAAKEFIAWLVKGIVRADLVGDAFDVWGQGTLVTVSS VL: QSVLTQPPSVSAAPGQKVTISCSGSGSNIGNNDVSWYQQLPGTAPKLLIYDNDKRPAGIPDRFSGSKSGTSATLGITGLQTGDEADYYCGTWDTSLSNYVFGGGTKLTVL | 206 | 234 | – | –
